Results from the supplement of paper PMC7125110.
± gives the standard error. Fewer inactive variants are shown than the library holds.

B1: glmS ribozyme (parent)
chain: AUAAAAGCGCCAGAACUACAGAAAUGUAGUUGACGAGGAGGAGGUUUAUCGAAUUUUCGGCGGAUGCCUCCAAA

Experiments:
Conditions in all cases: with glucosamine-6-phosphate
[1] = variants of: B1; test: self-cleavage kobs at 160 uM GlcN6P; higher = faster cleavage; RNA array
How it was run: (§1)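 Barcoded ribozyme variants, transcribed in situ by E. coli RNA polymerase on sequenced MiSeq chips, were followed via a hybridised Cy3 probe at 37 °C. Glucosamine-6-phosphate ranged from 40 μM to 10 mM in HEPES/KCl/Mg(OAc)2 buffer. kobs came from decay fits to per-tile medians, and kcat and KM from weighted Michaelis–Menten fits.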

[2] = variants of: B1; test: self-cleavage kobs at 640 uM GlcN6P; higher = faster cleavage; RNA array
How it was run: as §1

[3] = variants of: B1; test: self-cleavage kobs at 2500 uM GlcN6P; higher = faster cleavage; RNA array
How it was run: as §1

[4] = variants of: B1; test: self-cleavage kobs at 10000 uM GlcN6P; higher = faster cleavage; RNA array
How it was run: as §1

Variant	self-cleavage kobs at 160 uM GlcN6P [1] [s⁻¹]	self-cleavage kobs at 640 uM GlcN6P [2] [s⁻¹]	self-cleavage kobs at 2500 uM GlcN6P [3] [s⁻¹]	self-cleavage kobs at 10000 uM GlcN6P [4] [s⁻¹]
G29U U65A C68G	5.02e-05 ± 1.1e-05	6.79e-05 ± 1.4e-05	3.55e-05 ± 1.3e-05	
U31G G41U U47G G62U A64U C70G	< 1e-05	< 1e-05		
G13C C16A C68U	< 1e-05			
C16G G51U U56C C70U	< 1e-05	< 1e-05		
A14C A39U U56A G63U	< 1e-05			
C10G A14U A42U G60C C67G	< 1e-05			
G29U G37C A39U	< 1e-05	< 1e-05		
A12U U31G U69C	0.000336 ± 6.5e-05	0.000408 ± 0.00019	0.0026 ± 0.00042	
C11A C58U C68A	7.67e-05 ± 3.2e-05		7.25e-05 ± 2.7e-05	5.61e-05 ± 1.5e-05
G29A U47G A53G	6.62e-05 ± 2e-05	0.000173 ± 3.2e-05	0.000477 ± 0.00013	
A33G A53C C71U	< 1e-05			
A14G G29A A36U U47C C67U	< 1e-05	< 1e-05		
A33C G41A	< 1e-05	< 1e-05		
G13A C34G G62U	< 1e-05	< 1e-05		
C16G G41C G59A	< 1e-05	< 1e-05	< 1e-05	
G9U A33C C67G	< 1e-05		< 1e-05	
A36C U47G U69G	0.000151 ± 3.4e-05	8.37e-05 ± 1.5e-05	0.000213 ± 6e-05	
A14U U31A U47A	0.000611 ± 0.00016	0.00172 ± 0.00055		
C34A U57G	< 1e-05			< 1e-05
U30C A36G	< 1e-05			< 1e-05
G32U U54G	7.28e-05 ± 2.7e-05	0.000164 ± 5.1e-05	0.000272 ± 6.1e-05	0.000903 ± 0.00012
C16A A33G A64G C71G	8.57e-05 ± 3.4e-05		6.35e-05 ± 2.8e-05	
C10A A33G A36U G37C C61G	< 1e-05	< 1e-05		
A36U U55C	< 1e-05	< 1e-05		
G13C C50G	0.00119 ± 0.00034			
C34G G40U G62C	< 1e-05			
A12C G43U A53C	< 1e-05			
A15G U49G G63U C67A	< 1e-05	< 1e-05		
A14G G32A G38U	< 1e-05		< 1e-05	< 1e-05
C10A A52U C68A	7.21e-05 ± 2.5e-05			
